Results published in patent publication US20180016349A1 (Takeda / Millennium, published 2018).

Columns and labels:
[1] = target: T1, soluble human CD38 ectodomain (ECD), R&D Systems Cat #2404-AC (human, UniProt P28907 43-300); experiment: SPR Biacore A100, 22 C, mAb captured by anti-human IgG, soluble human CD38 ECD as analyte, 1:1 fit
T1 construct: Bought ectodomain; also called HuCD38; human recombinant CD38

[2] = target: T2, human CD38 on cells (MOLP-8, RPMI-8226, Daudi cell lines, patient cells and tissues) (human, UniProt P28907 1-300); experiment: flow cytometry titration on MOLP-8 cells, 4 C, nonlinear fit; 95% confidence interval in parentheses
T2 construct: Endogenous CD38 of human cell lines and patient samples; also called huCD38

[3] = target: T2, human CD38 on cells (MOLP-8, RPMI-8226, …); experiment: cell-based or functional assay
[4] = target: T3, cynomolgus CD38 (cynomolgus (Macaca fascicularis), UniProt Q5VAN0 1-301, limits assumed); experiment: not described at this place (FACS screen on CHO cells expressing cynomolgus CD38 is described in Example 3)
T3 construct: also called cyCD38; cyno CD38

[5] = target: T2, human CD38 on cells (MOLP-8, RPMI-8226, …); experiment: flow cytometry (FACS KD) on RPMI-8226 cells

T3 sequence (Q5VAN0 whole entry): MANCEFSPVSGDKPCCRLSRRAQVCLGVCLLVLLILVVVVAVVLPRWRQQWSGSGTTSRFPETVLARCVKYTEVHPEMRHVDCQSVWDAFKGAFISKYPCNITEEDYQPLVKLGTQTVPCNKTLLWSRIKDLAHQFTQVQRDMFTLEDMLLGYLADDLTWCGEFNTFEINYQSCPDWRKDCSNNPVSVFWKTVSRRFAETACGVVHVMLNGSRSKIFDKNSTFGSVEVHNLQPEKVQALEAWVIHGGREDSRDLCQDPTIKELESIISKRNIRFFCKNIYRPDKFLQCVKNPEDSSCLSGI

B1: Ab110 (antibody, human IgG1, lambda, V domains shown)
VH: EVQLLESGGGLVQPGGSLRLSCAASGFTFSSYGMHWVRQAPGKGLEWVSIIYSGGSTYYADSVKGRFTISRDNSKNTLYLQMNSLRAEDTAVYYCARRATWGGATHDYWGQGTLVTVSS
VL: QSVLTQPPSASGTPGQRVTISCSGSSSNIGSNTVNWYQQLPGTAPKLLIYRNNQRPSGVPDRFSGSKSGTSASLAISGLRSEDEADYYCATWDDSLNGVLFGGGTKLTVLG
- Kd [1]: 1400 nM
- koff [1]: 0.171 s⁻¹
- kon [1]: 122000 M⁻¹ s⁻¹
- Kd [2]: 1 nM
- ADCC EC50 nM (DAUDI) [3]: 0.24 nM
- ADCC EC50 nM (MOLP-8) [3]: 0.874 nM
- ADCC EC50 nM (RPMI-8226) [3]: 2.98 nM
- Apoptosis EC50 nM (DAUDI) [3]: 0.4 nM
- CDC EC50 nM (MOLP-8) [3]: 1.99 nM

B2: Ab19 (antibody, human IgG1, lambda, V domains shown)
VH: EVQLLESGGGLVQPGGSLRLSCAASGFTFNNYDMTWVRQAPGKGLEWVAVISYDGSDKDYADSVKGRFTISRDNSKNTLYLQMNSLRAEDTAVYYCARVYYYGFSGPSMDVWGQGTLVTVSS
VL: QSVLTQPPSASGTPGQRVTISCSGSNSNIGSNTVNWYQQLPGTAPKLLIYSDSNRPSGVPDRFSGSKSGTSASLAISGLRSEDEADYYCQSYDSSLSGSRVFGGGTKLTVLG
- Kd [1]: 5.3 nM
- Kd [2]: 0.4 nM
- binding result [4]: binds
- ADCC EC50 nM (DAUDI) [3]: 0.08 nM
- ADCC EC50 nM (MOLP-8) [3]: 0.038 nM
- ADCC EC50 nM (RPMI-8226) [3]: 0.46 nM
- Apoptosis EC50 nM (DAUDI) [3]: 0.032 nM
- CDC EC50 nM (MOLP-8) [3]: 0.98 nM

B3: Ab79 (antibody, human IgG1, lambda, V domains shown)
VH: EVQLLESGGGLVQPGGSLRLSCAASGFTFDDYGMSWVRQAPGKGLEWVSDISWNGGKTHYVDSVKGQFTISRDNSKNTLYLQMNSLRAEDTAVYYCARGSLFHDSSGFYFGHWGQGTLVTVSS
VL: QSVLTQPPSASGTPGQRVTISCSGSSSNIGDNYVSWYQQLPGTAPKLLIYRDSQRPSGVPDRFSGSKSGTSASLAISGLRSEDEADYYCQSYDSSLSGSVFGGGTKLTVLG
notes: also called TSF79
- Kd [1]: 5.5 nM
- Kd [5]: 0.508 nM
- Kd [2]: 1.2 nM
- binding result [4]: binds
- ADCC EC50 nM (DAUDI) [3]: 0.03 nM
- ADCC EC50 nM (MOLP-8) [3]: 0.047 nM
- ADCC EC50 nM (RPMI-8226) [3]: 0.46 nM
- Apoptosis EC50 nM (DAUDI) [3]: 0.048 nM
- CDC EC50 nM (MOLP-8) [3]: 1.1 nM

B4: Ab43 (antibody, human IgG1, lambda, V domains shown)
VH: EVQLLESGGGLVQPGGSLRLSCAASGFTFSSYGMHWVRQAPGKGLEWVSRINSDGSSTSYADSMKGQFTISRDNSKNTLYLQMNSLRAEDTAVYYCARGGYYYYAMDVWGQGTLVTVSS
VL: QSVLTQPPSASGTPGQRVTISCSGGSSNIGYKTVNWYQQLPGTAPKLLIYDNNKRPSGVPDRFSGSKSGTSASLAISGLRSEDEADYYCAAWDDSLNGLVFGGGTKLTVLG
- Kd [1]: 537 nM
- koff [1]: 0.146 s⁻¹
- kon [1]: 272000 M⁻¹ s⁻¹
- Kd [2]: 1.1 nM
- ADCC EC50 nM (DAUDI) [3]: 0.12 nM
- ADCC EC50 nM (MOLP-8) [3]: 0.027 nM
- ADCC EC50 nM (RPMI-8226) [3]: 3.84 nM
- Apoptosis EC50 nM (DAUDI) [3]: 1.56 nM
- CDC EC50 nM (MOLP-8) [3]: 2.2 nM

B5: Ab72 (antibody, human IgG1, lambda, V domains shown)
VH: EVQLLESGGGLVQPGGSLRLSCAASGFTFSSYGMNWVRQAPGKGLEWVSGISGSGGSTYYADSVKGRFTISRDNSKNTLYLQMNSLRAEDTAVYYCAKDSNYDFWSGYYYGMDVWGQGTLVTVSS
VL: QSVLTQPPSASGTPGQRVTISCSGSSSNIGSKTVSWYQQLPGTAPKLLIYDNNKRPSGVPDRFSGSKSGTSASLAISGLRSEDEADYYCSSYAARSTNIIFGGGTKLTVLG
- Kd [1]: 126 nM
- koff [1]: 0.00182 s⁻¹
- kon [1]: 14400 M⁻¹ s⁻¹
- Kd [2]: 0.6 nM
- ADCC EC50 nM (DAUDI) [3]: 0.14 nM
- ADCC EC50 nM (MOLP-8) [3]: 0.193 nM
- ADCC EC50 nM (RPMI-8226) [3]: 2.35 nM
- Apoptosis EC50 nM (DAUDI) [3]: 0.35 nM
- CDC EC50 nM (MOLP-8) [3]: 0.66 nM
